Test system: fluorogenic substrate
Format: biochemical, Staphylococcus aureus
Conditions: 2.0 μM fluorogenic substrate; for measureable activity of mutant enzyme: enzyme 21.38 nM (dimer), n ≥ 3

Molecule	measureable activity of mutant enzyme	activity relative to the wild-type enzyme (enzyme 213.8 nM) [%]
G21A (protein, left off: His6, N-terminal, cleaved | SUMO, N-terminal, cleaved) MITVDITVNDEGKVTDVIMDAHADHGEYGHDIVCAGASAVLFGSVNAIIGLTSERPDINYDDNGGHFHIRSVDTNNDEAQLILQTMLVSLQTIEEEYNENIRLNYK	none	–
H22A (protein, left off: His6, N-terminal, cleaved | SUMO, N-terminal, cleaved) MITVDITVNDEGKVTDVIMDGAADHGEYGHDIVCAGASAVLFGSVNAIIGLTSERPDINYDDNGGHFHIRSVDTNNDEAQLILQTMLVSLQTIEEEYNENIRLNYK	none	–
D31A (protein, left off: His6, N-terminal, cleaved | SUMO, N-terminal, cleaved) MITVDITVNDEGKVTDVIMDGHADHGEYGHAIVCAGASAVLFGSVNAIIGLTSERPDINYDDNGGHFHIRSVDTNNDEAQLILQTMLVSLQTIEEEYNENIRLNYK	none	–
S38A (protein, left off: His6, N-terminal, cleaved | SUMO, N-terminal, cleaved) MITVDITVNDEGKVTDVIMDGHADHGEYGHDIVCAGAAAVLFGSVNAIIGLTSERPDINYDDNGGHFHIRSVDTNNDEAQLILQTMLVSLQTIEEEYNENIRLNYK	none	2.1 ± 0.2
